Experimental data as given in the supplement of paper PMC9876800.

System: peptide library, one residue held at a place counted from the S/T acceptor
Assay: relative phosphorylation of the sub-library (ratio to the mean residue at this position); higher = residue favoured
Outline: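 Human or orthologue kinase constructs, purified and recombinant, were incubated under kinase-specific conditions in 384-well plates with biotinylated degenerate peptide sub-libraries. Each sub-library fixed one residue at one position around a central Ser/Thr. Incubations lasted 90 min with peptides at 50 μM and 50 μM ATP spiked with γ-32P-ATP, after which spots on streptavidin membranes were phosphorimaged and quantified by densitometry. Relative sub-library phosphorylation is a ratio to the mean residue at that position.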

Sequence of CDK12, construct: aa714-1063, human (Q9NYV4 714-1063, looked up): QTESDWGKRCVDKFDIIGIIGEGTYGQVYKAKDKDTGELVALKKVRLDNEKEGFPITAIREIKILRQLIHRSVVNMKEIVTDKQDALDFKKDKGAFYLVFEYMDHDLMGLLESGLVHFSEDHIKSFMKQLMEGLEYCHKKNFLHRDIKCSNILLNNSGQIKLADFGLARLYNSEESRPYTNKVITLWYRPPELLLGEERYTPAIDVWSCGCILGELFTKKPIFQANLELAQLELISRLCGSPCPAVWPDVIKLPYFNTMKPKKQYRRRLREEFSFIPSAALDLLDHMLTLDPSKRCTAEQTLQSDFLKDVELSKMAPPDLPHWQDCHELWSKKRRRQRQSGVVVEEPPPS

CDK5, construct: Full length, human (from UniProt Q00535)
relative phosphorylation
Conditions | at +1 | at +2 | at +3 | at +4 | at -1 | at -2 | at -3 | at -4 | at -5
A fixed | 0.423 | 1.13 | 0.791 | 1.07 | 1.16 | 1.08 | 1.05 | 1.15 | 1.22
D fixed | 0.262 | 0.357 | 0.165 | 0.478 | 0.753 | 0.717 | 0.92 | 1.1 | 1.24
E fixed | 0.305 | 0.516 | 0.12 | 0.512 | 0.747 | 0.842 | 1.02 | 0.993 | 1.03
F fixed | 0.227 | 0.765 | 0.485 | 0.679 | 0.557 | 0.765 | 0.65 | 0.801 | 0.925
G fixed | 1.25 | 1.06 | 0.809 | 1.56 | 1.86 | 1.21 | 1.47 | 1.47 | 1.35
H fixed | 0.344 | 1.19 | 3.07 | 1.27 | 0.925 | 1.03 | 1.12 | 1.05 | 1.03
I fixed | 0.261 | 0.87 | 0.444 | 0.828 | 0.346 | 0.646 | 0.742 | 0.642 | 0.63
K fixed | 0.374 | 2.44 | 3.21 | 1.92 | 1.49 | 0.85 | 1.05 | 1.07 | 1.26
L fixed | 0.278 | 0.831 | 0.536 | 0.754 | 0.697 | 0.958 | 0.673 | 0.689 | 0.625
M fixed | 0.382 | 0.869 | 0.542 | 0.967 | 0.995 | 1.01 | 0.894 | 0.86 | 0.725
N fixed | 0.569 | 0.828 | 1.08 | 0.81 | 1.17 | 1.01 | 1.17 | 1 | 0.916
P fixed | 10.5 | 0.464 | 0.63 | 0.829 | 1.49 | 2.71 | 1.8 | 1.61 | 1.45
Q fixed | 0.492 | 0.971 | 0.636 | 1.05 | 1.24 | 0.998 | 1.06 | 0.952 | 0.979
R fixed | 0.373 | 2 | 3.14 | 1.57 | 1.48 | 0.788 | 1.06 | 0.988 | 1.07
V fixed | 0.377 | 0.926 | 0.397 | 0.904 | 0.568 | 0.788 | 0.75 | 0.695 | 0.757
W fixed | 0.285 | 0.763 | 0.463 | 0.957 | 0.722 | 0.786 | 0.811 | 1.1 | 0.766
Y fixed | 0.258 | 1.01 | 0.49 | 0.836 | 0.805 | 0.817 | 0.763 | 0.825 | 1.01
pThr fixed | 0.518 | 0.434 | 0.412 | 0.38 | 0.408 | 0.721 | 0.956 | 0.995 | 0.939
pTyr fixed | 0.513 | 0.44 | 0.344 | 0.453 | 0.548 | 0.748 | 0.822 | 0.835 | 1.01

CDK12, construct: aa714-1063, human (from UniProt Q9NYV4)
relative phosphorylation
Conditions | at +1 | at +2 | at +3 | at +4 | at -1 | at -2 | at -3 | at -4 | at -5
A fixed | 0.323 | 0.895 | 0.799 | 0.848 | 1.09 | 1.19 | 1.04 | 1.11 | 1.13
D fixed | 0.154 | 0.546 | 0.392 | 0.912 | 0.38 | 0.47 | 0.629 | 0.861 | 0.879
E fixed | 0.155 | 0.5 | 0.446 | 0.923 | 0.438 | 0.456 | 0.707 | 0.9 | 0.735
F fixed | 0.341 | 0.984 | 0.553 | 0.891 | 0.844 | 0.667 | 0.778 | 1.07 | 1.21
G fixed | 0.715 | 1.28 | 0.854 | 1.43 | 1.58 | 1.7 | 2.58 | 1.27 | 1.09
H fixed | 0.261 | 1.21 | 1.79 | 1.44 | 0.876 | 0.811 | 0.897 | 1.04 | 1.01
I fixed | 0.309 | 0.911 | 0.929 | 0.828 | 0.364 | 0.973 | 0.971 | 0.891 | 0.868
K fixed | 0.27 | 1.34 | 0.977 | 0.804 | 1.01 | 0.659 | 0.63 | 0.832 | 0.847
L fixed | 0.36 | 0.853 | 0.545 | 0.765 | 0.834 | 0.863 | 0.754 | 0.946 | 0.939
M fixed | 0.357 | 1.16 | 0.523 | 0.832 | 1.65 | 1.28 | 0.819 | 1.04 | 0.924
N fixed | 0.227 | 0.992 | 0.721 | 0.973 | 0.801 | 0.713 | 0.686 | 0.893 | 0.82
P fixed | 12.1 | 0.747 | 1.26 | 0.992 | 1.08 | 1.84 | 1.33 | 1.06 | 1.28
Q fixed | 0.243 | 0.828 | 0.709 | 0.889 | 0.982 | 0.738 | 0.637 | 0.763 | 0.883
R fixed | 0.281 | 1.77 | 3.97 | 0.962 | 2.34 | 1.58 | 1.75 | 1.02 | 1.03
V fixed | 0.319 | 0.846 | 0.71 | 0.73 | 0.467 | 0.906 | 0.762 | 0.784 | 0.899
W fixed | 0.283 | 0.933 | 0.881 | 1.58 | 1.1 | 1.2 | 0.927 | 1.35 | 1.19
Y fixed | 0.274 | 1.2 | 0.934 | 1.21 | 1.17 | 0.956 | 1.1 | 1.19 | 1.27
pThr fixed | 0.363 | 0.528 | 0.566 | 0.999 | 0.336 | 0.48 | 0.83 | 0.846 | 0.975
pTyr fixed | 0.378 | 0.504 | 0.859 | 1.29 | 1.16 | 0.719 | 0.908 | 0.998 | 0.975

RPS6KA5, construct: Full length, human (from UniProt O75582)
relative phosphorylation
Conditions | at +1 | at +2 | at +3 | at +4 | at -1 | at -2 | at -3 | at -4 | at -5
A fixed | 0.772 | 0.9 | 0.834 | 0.825 | 0.783 | 0.787 | 0.718 | 0.981 | 1.04
D fixed | 0.723 | 2.19 | 1.3 | 1.63 | 0.877 | 0.316 | 0.294 | 0.639 | 0.65
E fixed | 0.84 | 1.43 | 1.27 | 1.62 | 0.544 | 0.306 | 0.314 | 0.757 | 0.597
F fixed | 1.44 | 0.986 | 1.12 | 0.863 | 0.767 | 0.4 | 0.352 | 0.778 | 0.91
G fixed | 0.633 | 0.826 | 0.988 | 1 | 0.855 | 0.675 | 0.499 | 1.31 | 1.18
H fixed | 1.04 | 1.59 | 1.35 | 1.23 | 1.16 | 1.06 | 1.18 | 1.18 | 1.03
I fixed | 1.48 | 0.676 | 0.738 | 0.713 | 0.435 | 0.272 | 0.286 | 0.694 | 0.779
K fixed | 0.616 | 0.436 | 0.674 | 0.588 | 1.57 | 1.8 | 1.18 | 1.34 | 1.2
L fixed | 1.32 | 0.95 | 1.09 | 0.777 | 1.07 | 0.444 | 0.293 | 0.807 | 1.03
M fixed | 1.49 | 0.781 | 0.981 | 0.788 | 1.04 | 0.445 | 0.39 | 1.07 | 0.962
N fixed | 0.976 | 1.27 | 0.92 | 1.2 | 1.42 | 0.693 | 0.51 | 0.909 | 0.81
P fixed | 0.292 | 0.581 | 0.98 | 1.5 | 1.63 | 0.367 | 0.588 | 1.1 | 0.923
Q fixed | 1.19 | 0.734 | 0.989 | 1.12 | 1.15 | 0.843 | 0.666 | 0.915 | 0.774
R fixed | 0.539 | 0.52 | 0.574 | 0.551 | 1.5 | 7.44 | 8.25 | 2.04 | 2.26
V fixed | 1.21 | 0.81 | 0.714 | 0.721 | 0.466 | 0.318 | 0.282 | 0.663 | 0.775
W fixed | 1.21 | 1.03 | 1.33 | 0.959 | 0.743 | 0.425 | 0.709 | 0.86 | 1.2
Y fixed | 1.25 | 1.28 | 1.16 | 0.912 | 1 | 0.4 | 0.486 | 0.952 | 0.871
pThr fixed | 1.64 | 1.88 | 1.62 | 2.88 | 0.451 | 0.325 | 0.406 | 0.697 | 0.68
pTyr fixed | 1.68 | 1.25 | 1.53 | 1.57 | 0.898 | 0.392 | 0.539 | 0.698 | 0.747
